Measurements reported in patent US20110135634A1, “METHODS OF INHIBITING INFECTION BY DIVERSE SUBTYPES OF DRUG-RESISTANT HIV-1” (priority 2007, published 2011).

Legend:
[1] = tested on: primary R5 HIV-1 isolates JR-FL and Case C 1/85 (CC1/85); test: In vitro resistance selection and susceptibility testing on PBMC; assay type: cell-based; conditions: p24 ELISA
Description: For susceptibility testing, viruses were cultured in vitro on stimulated PBMC. In the presence and absence of serially diluted drug, and the extent of viral replication was determined by p24 ELISA.

[2] = tested on: CCR5 chemokine signaling (L1.2-CCR5 cells); test: RANTES-induced calcium mobilization in L1.2-CCR5 cells versus HIV-1JR-FL replication in PBMC (FIG. 4); assay type: cell-based, human; conditions: PBMC cultures, similar results for MIP-1α and MIP-1β
Source text: Similar results were obtained for MIP-1α and MIP-1β.

[3] = tested on: HIV-1; conditions: Olson et al., 1999; Trkola et al., 2001; cited from earlier work
[4] = molecular target: T1, CCR5 on CEM.NKR-CCR5 cells (Homo sapiens, UniProt P51681); test: Competition binding: inhibition of PRO 140-PE binding; conditions: based on percent cells gated; 5 nM PRO 140-PE
T1 construct: host or cells: CEM.NKR-CCR5 (transduced human T cell leukemia line)
T1 sequence (P51681 whole entry): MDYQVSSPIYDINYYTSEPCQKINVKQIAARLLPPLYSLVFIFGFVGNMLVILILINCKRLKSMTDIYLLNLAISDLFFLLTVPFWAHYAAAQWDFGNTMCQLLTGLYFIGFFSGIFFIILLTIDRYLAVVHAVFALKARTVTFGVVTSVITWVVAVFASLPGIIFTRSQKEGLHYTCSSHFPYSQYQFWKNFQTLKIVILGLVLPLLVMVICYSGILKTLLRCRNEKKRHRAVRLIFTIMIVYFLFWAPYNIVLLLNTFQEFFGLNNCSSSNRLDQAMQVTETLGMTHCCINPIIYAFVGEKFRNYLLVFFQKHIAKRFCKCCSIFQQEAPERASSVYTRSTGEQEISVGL
Description: Azide was added to block CCR5 internalization during the assay.

[5] = tested on: reporter viruses pseudotyped with HIV-1JR-FL envelope (U87-CD4-CCR5 cells); test: microbe, parasite or virus in culture; assay type: cell-based
[6] = tested on: HIV-1JR-CSF; test: hu-PBL-SCID mouse model of HIV-1 infection (FIG. 5); assay type: in vivo, SCID mice; conditions: multiple doses after steady state viral levels
Description: SCID mice were reconstituted with normal human peripheral blood mononuclear cells and infected 2 weeks later with HIV-1JR-CSF. Multiple doses of PRO 140 were administered following attainment of steady state viral levels. Plasma viral loads pre- and post-injection are indicated.

[7] = human, in vivo
Description: Individuals were treated in sequential, dose-rising cohorts of 5 subjects (4 active and 1 placebo) each and evaluated for up to 120 days post-treatment. […] Safety assessments consisted of monitoring the following: vital signs (blood pressure, pulse, temperature, etc; hematology (hemoglobin, hematocrit, leukocytes, platelets, etc.); serum chemistries (AST/ALT, alkaline phosphatase, BUN, creatinine, etc.); urinalysis (pH, specific gravity, protein, glucose, leukocytes, etc.); and ECGs (12-lead).
Sera were diluted as appropriate and combined with L1.2-CCR5 cells, which are mouse pre-B lymphoma cells engineered to stably express human CCR5. […] Following incubation with test samples, cells were washed and combined with a FITC-labeled sheep antibody against human IgG4 (The Binding Site Limited, Cat. #AF009). Cells were washed again and analyzed by flow cytometry.
Serum was collected post-treatment, cryopreserved, and analyzed for PRO 140 levels. Peak serum concentrations ranged to […] at 0.1 mg/kg and […] at 0.5 mg/kg.

[8] = tested on: CCR5-tropic envelope-complemented luciferase-expressing HIV-1 reporter viruses; test: PhenoSense HIV Entry Assay on U87-CD4/CCR5 cells; assay type: cell-based; parameters: key to Mean FC / FC: fold change in drug susceptibility vs DUAL (92HT594) reference envelope
Source text: Of these, 10 isolates were derived from viruses with high-level resistance to protease (PR) and/or reverse transcriptase (RT) inhibitors. Four additional isolates incorporated the major enfuvirtide-conferring mutations in an HIV-1JR-CSF envelope background. […] EC50 values for test isolates were divided by the EC50 for a well-characterized reference virus (HIV-192HT594) to yield fold-change (FC) values.
A PhenoSense™ HIV Entry assay (Whitcomb et al, Antimicrobial Agents and Chemotherapy, 51:566, 2007) has been developed by modifying the PhenoSense HIV assay and is illustrated schematically in FIGS. 21 and 22. The assay uses nucleic acid amplification (RT-PCR) to derive HIV envelope sequences (gp160) from HIV(+) patient plasma samples or other sources. Amplified envelope sequences were incorporated into a proprietary expression vector (pCXAS) using conventional cloning methods. Envelope expression vectors were prepared as large pools of sequences (>200) in order to assure that the diversity of sequences accurately represents the diversity of viral quasispecies in the specimen at the time of sample collection. Recombinant HIV-1 stocks expressing virus envelope proteins were prepared by co-transfecting HEK293 cells with a HIV-1 genomic viral vector and an appropriate envelope expression vector. The HIV-1 genomic vector is replication defective and contains a luciferase expression cassette within a deleted region of the HIV envelope gene. Following transfection, recombinant virus particles were harvested and used to inoculate two U87 cell lines expressing CD4 and the CCR5 or CXCR4 co-receptor (U87-CD4/CCR5 and U87-CD4/CXCR4 cells, respectively). […] Drug susceptibility was measured by comparing the amount of luciferase activity produced in the presence of entry inhibitors to the amount of luciferase activity produced in absence of entry inhibitors. Entry inhibitor activity was evaluated at ten serial drug concentrations. Data were analyzed by plotting percent inhibition of luciferase activity vs. log10 drug concentration.
The 31 viruses used in this study were CCR5-tropic and were selected from Monogram Biosciences' Specimen Library. The panel included four of each subtypes A, B, C, D, F, and G viruses and three subtype J virus (Table 17). Of the 31 viruses examined, 17 were wildtype (WT), 10 were resistant to protease (PR) and/or reverse transcriptase (RT) inhibitors and 4 were enfuvirtide-resistant site-directed mutants (SDMs). The enfuvirtide-resistant viruses included envelopes with amino acid substitutions at positions 36-38 (GIV motif) and 43 within heptad repeat 1 (HR-1) and were introduced by site-directed mutagenesis into gp41 transmembrane (TM) sequence of the JRCSF envelope, as shown in Table 16.
DUAL (92HT594) is an envelope expression vector derived from a drug-naive reference virus that can efficiently infect cells expressing both the CD4 receptor and the CCR5 or CXCR4 co-receptor molecules on the cell surface. The DUAL envelope control was used to determine the fold changes in drug susceptibility of samples evaluated on U87-CD4/CCR5 cells. The DUAL control was also tested in each assay batch to evaluate and monitor assay performance over time.
JRCSF is an envelope expression vector derived from a drug-naive reference virus that can efficiently infect cells expressing both the CD4 receptor and the CCR5 co-receptor molecules on the cell surface.
Susceptibility data were analyzed by plotting percent inhibition of luciferase activity vs. log10 drug concentration.

[9] = JRFL, labelled 1st inhibitor with 2nd inhibitor PRO 140 (equimolar; 1:10 PRO 140 to nevirapine or zidovudine)

B1: PRO 140: humanized IgG4,κ anti-CCR5 mAb being developed for HIV-1 therapy (antibody, chains of the INN, looked up, V domains shown)
VH: EVQLVESGGGLVKPGGSLRLSCAASGYTFSNYWIGWVRQAPGKGLEWIGDIYPGGNYIRNNEKFKDKTTLSADTSKNTAYLQMNSLKTEDTAVYYCGSSFGSNYVFAWFTYWGQGTLVTVSS
VL: DIVMTQSPLSLPVTPGEPASISCRSSQRLLSSYGHTYLHWYLQKPGQSPQLLIYEVSNRFSGVPDRFSGSGSGTDFTLKISRVEAEDVGVYYCSQSTHVPLTFGQGTKVEIK
inhibition of SCH-D escape mutants [1]: efficiently inhibited | effect on RANTES-induced calcium mobilization and on HIV-1JR-FL replication [2]: blocks HIV-1 but not chemokine signaling | IC90 [3]: about 4 μg/ml | EC90 [4]: 17 nM | IC50 ([5]; HIV-1 envelope JRFL, 1st inhibitor alone, read-out: IC50): 2.2 nM | IC90 ([5]; HIV-1 envelope JRFL, 1st inhibitor alone, read-out: IC90): 28 nM | CI50 [5, 9]: 1.2 ± 0.32 | CI90 [5, 9]: 0.90 ± 0.15 | control of viral replication (plasma viral loads) [6]: prolonged control of viral replication | terminal serum half-life [7]: 10 to 12 days | median IC50 ([8]; 27 viruses representing different genetic subtypes): 0.44 µg/mL | range of FC values ([8]; 31 test viruses, relative to HIV-1 92HT594): 0.28-4.1 | mean EC50 ([8]; all 31 test viruses): 0.50 ± 0.27 µg/mL | Mean FC ([8]; all 31 test viruses, relative to reference virus HIV-1 92HT594): 1.5±0.8 | FC ([8]; envelopes from PR/RT-resistant viruses): 1.4±1.0 | mean IC50 ([8]; four enfuvirtide-resistant SDMs): 0.82 µg/mL | IC50, Average ([8]; panel of 31 viruses): 0.5096 µg/mL | IC50, Max ([8]; panel of 31 viruses): 1.4329 µg/mL | IC50, Median ([8]; panel of 31 viruses): 0.4418 µg/mL | IC50, Min ([8]; panel of 31 viruses): 0.0955 µg/mL | Mean FC ([8]; subtype A): 1.0±0.4 | Mean FC ([8]; subtype B): 1.5±0.2 | Mean FC ([8]; subtype C): 0.94±0.5 | Mean FC ([8]; subtype D): 1.4±0.6 | Mean FC ([8]; subtype F): 1.5±0.7 | Mean FC ([8]; subtype G): 1.8±1.6 | Mean FC ([8]; subtype J): 1.2±0.4
